Measurements: patent US20160108110A1 (Novartis, published 2016)
Each block holds one binder with its values, some of them ahead of it.

Experiments:
[1] = biological target: T1, Human ANGPTL4(26-406)-FLAG-His6-Avi (human, UniProt Q9BY76 24-406, biotin on the C-terminal Avi tag in the biotinylated preparations (immobilised form in SET, ELISA and Octet)); assay: SET assay (solution equilibrium titration, MSD), IgG
T1 construct: also called full-length human ANGPTL4; hANGPTL4
T1 sequence: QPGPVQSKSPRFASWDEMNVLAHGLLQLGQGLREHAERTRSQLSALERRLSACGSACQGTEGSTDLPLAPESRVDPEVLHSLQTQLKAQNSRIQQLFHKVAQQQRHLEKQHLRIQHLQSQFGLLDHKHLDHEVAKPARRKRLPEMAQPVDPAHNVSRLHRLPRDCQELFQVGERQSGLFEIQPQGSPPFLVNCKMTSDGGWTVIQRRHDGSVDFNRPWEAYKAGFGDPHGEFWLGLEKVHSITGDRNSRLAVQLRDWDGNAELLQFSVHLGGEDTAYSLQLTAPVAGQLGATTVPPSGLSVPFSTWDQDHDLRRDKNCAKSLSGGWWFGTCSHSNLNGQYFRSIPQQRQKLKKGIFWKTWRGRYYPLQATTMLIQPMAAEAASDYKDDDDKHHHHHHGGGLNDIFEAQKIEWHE
Procedure: (§1) SET assays were performed as follows. In a 96-well polypropylene plate, a constant concentration of ANGPTL4 antibody was mixed with different concentrations of non-biotinylated human, cyno, mouse, or rat full-length ANPGLT4 protein, or human ANGPTL4 N-terminal domain protein (5-fold serial dilution) and incubated at 22° C. for 14 hours with constant shaking (300 rpm). On a pre-blocked 384-well streptavidin-coated Meso Scale Discovery (MSD) plate biotinylated ANGPTL4 (full-length human, cyno, mouse, or rat ANGPTL4, or human ANGPTL4 N-terminal domain) protein (1 nM, 15 μL per well) was immobilized and washed thereafter.
(§2) The equilibrium binding reactions (15 μL per well) were applied to the MSD plate with immobilized ANGPTL4 and incubated for 20 min at 22° C. The unbound material was removed by washing the plate 3 times with wash buffer, and the captured antibody was detected by adding Sulfo-tagged goat anti-human IgG (Meso Scale Discovery). After washing MSD read buffer T was added and the plate was developed using a Sector Imager 6000 (Meso Scale Discovery). The data were transferred to Microsoft Excel for analysis and plotted using GraphPad Prism v6. The KD values were determined by fitting the data to the following equation: […]
(§3) where Bₘₐₓ is the signal when no ANGPTL4 protein is present in solution, CAb is the constant concentration of ANGPTL4 antibody in solution, CAg is the concentration of ANGPTL4 in solution, and KD is the equilibrium dissociation constant.

[2] = biological target: T2, Mouse ANGPTL4(26-410)-FLAG-His6-Avi (mouse, UniProt Q9Z1P8 24-410, biotin on the C-terminal Avi tag in the immobilised form); assay: as above
T2 sequence: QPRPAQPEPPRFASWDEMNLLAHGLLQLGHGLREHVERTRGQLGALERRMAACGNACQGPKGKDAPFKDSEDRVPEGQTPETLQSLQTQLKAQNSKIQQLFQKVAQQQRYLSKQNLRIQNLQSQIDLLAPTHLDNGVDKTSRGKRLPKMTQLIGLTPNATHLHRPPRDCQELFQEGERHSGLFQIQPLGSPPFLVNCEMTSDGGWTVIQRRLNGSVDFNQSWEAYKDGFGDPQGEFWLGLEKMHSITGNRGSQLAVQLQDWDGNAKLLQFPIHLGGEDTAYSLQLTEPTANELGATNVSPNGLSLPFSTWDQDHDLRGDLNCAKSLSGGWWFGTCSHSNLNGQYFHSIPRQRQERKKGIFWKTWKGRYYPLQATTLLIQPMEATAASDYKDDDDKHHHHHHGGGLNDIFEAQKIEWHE
Procedure: as §1, §2, §3

[3] = biological target: T1, Human ANGPTL4(26-406)-FLAG-His6-Avi; assay: cell-based or functional assay
[4] = biological target: T1, Human ANGPTL4(26-406)-FLAG-His6-Avi; assay: ForteBio Octet, biotinylated antigen on streptavidin sensor, antibody in solution
Procedure: Dissociation constants (KD) were determined for selected antibodies of the invention by using an Octet (ForteBio) kinetic binding assay. ForteBio 10× Kinetics Buffer (ForteBio, catalog number 18-5032) was diluted 10-fold with DPBS (Life Technologies, catalog number 14190-136), and the resulting solution was added (0.2 ml per well) to a 96-well plate (Greiner, catalog number 65520). Streptavidin sensors (ForteBio, catalog number 18-5020) were immersed in the solution and equilibrated for at least 10 min at room temperature. In a second 96-well plate (Greiner, catalog number 65520), sensors were washed in 1× Kinetics buffer, and then immersed in 200 ul of 25 nM biotinylated human ANGPTL4 or a biotinylated reference protein (for background substraction) for 1000 sec […] at room temperature. The sensors were then washed in 1× Kinetics buffer for 120 sec, and immersed in 200 ul of ANGPTL4 antibody diluted in 1× Kinetics buffer at various concentrations (serial 2-fold dilutions ranging from 25 nM to 0.4 nM), and antibody association was monitored for 480 seconds. The sensors were then transferred to a well containing 200 ul 1× Kinetics buffer, and antibody dissociation was monitored for 1200 seconds. Background-corrected association and dissociation curves were globally fitted by Octet Software (ForteBio) to generate association (kₒₙ) and dissociation (koff) rate constants, which in turn were used to calculate equilibrium dissociation constants (KD).

Kd [1]: 0.01 nM
Kd [2]: 0.005 nM
Reversal of human ANGPTL4 inhibition of human LPL EC50 [3]: 1 nM
Kd [4]: 0.184 nM
koff [4]: 6.5e-05 s⁻¹
kon [4]: 250000 M⁻¹ s⁻¹
B1: MOR021792 (antibody, human IgG1, lambda, V domains shown)
VH: QVQLLESGGGLVQPGGSLRLSCAASGFTFSDYAMDWVRQAPGKGLEWVSKISYDGSYTYYADSVKGRFTISRDNSKNTLYLQMNSLRAEDTAVYYCARPSMSYYIIPAGFDVWGQGTLVTVSS
VL: DIELTQPPSVSVSPGQTASITCSGDALGVKRASWYQQKPGQAPVLVIYKDNNRPSGIPERFSGSNSGNTATLTISGTQAEDEADYYCSVRTWSMNLYVFGGGTKLTVLG

Kd [1]: 0.01 nM
B2: MOR022765 (antibody, human IgG1, lambda, V domains shown)
VH: EVQLVQSGAEVKKPGESLKISCKGSGYSFSTYWISWVRQMPGKGLEWMGIIDPSSSDTRYSPSFQGQVTISADKSISTAYLQWSSLKASDTAMYYCARVYGYVYMDVWGQGTLVTVSS
VL: SYELTQPLSVSVALGQTARITCSGDNLGKKYAYWYQQKPGQAPVLVIYDKTKRPSGIPERFSGSNSGNTATLTISRAQAGDEADYYCASYDWYSSSYVFGGGTKLTVLG
notes: human IgG1

Kd [1]: 0.093 nM
Kd [2]: 0.517 nM
Reversal of human ANGPTL4 inhibition of human LPL EC50 [3]: 2 nM
Kd [4]: 0.444 nM
koff [4]: 9.9e-05 s⁻¹
kon [4]: 220000 M⁻¹ s⁻¹
B3: MOR021798 (antibody, human IgG1, lambda, V domains shown)
VH: QVQLLESGGGLVQPGGSLRLSCAASGFTFSDYALHWVRQAPGKGLEWVSRISYMGSSTYYADSVKGRFTISRDNSKNTLYLQMNSLRAEDTAVYYCAREHYYSSPMGGVAVDNWGQGTLVTVSS
VL: DIVLTQPPSVSGAPGQRVTISCSGSSSNIGYNTVSWYQQLPGTAPKLLIYSNNIRPSGVPDRFSGSKSGTSASLAITGLQAEDEADYYCSSWDFLIKSLVFGGGTKLTVLG
notes: human IgG1
